# Test results from US20060281899A1, “Mutants of biotin binding protein” (priority 2002, published 2006).
# Read-outs that look alike come from different tables or passages of the source.
# Columns and labels:
# [1] = Differential scanning calorimetry of the avidin mutants; format: physicochemical; details: DSC, 100 mM Na-phosphate buffer pH 7.4
# Protocol: In order to study the thermal stability of the purified avidin mutants, they were subjected to analysis by differential scanning calorimetry. A Nano II differential scanning calorimeter (Calorimetric Science Corporation, Provo, Utah) was used. […] The reference cell was filled with the same buffer that the sample proteins were dissolved in (100 mM Na-phosphate buffer pH 7.4). The thermograms were recorded as a function of temperature, between 25 and 130° C. at a temperature scan rate of 55.6° C./h. The baselines were subtracted and the transition midpoints (Tm) of the samples were calculated using proprietary software provided by the instrument manufacturer.
# [2] = biotin cuvette; values from Hytönen 2003; cited from earlier work
# [3] = 2-iminobiotin cuvette, cited from earlier work
# [4] = Differential scanning calorimetry of avidin and AVR4/5 forms; format: physicochemical
# Protocol: The thermodynamics of the heat-induced unfolding of the proteins were studied using DSC. The transition midpoint of heat-induced denaturation (Tm) of the avidin and different AVR4/5 forms was studied using a Nano II differential scanning calorimeter (Calorimetric Sciences Corporation, Provo, Utah, USA). The reference cell was filled with buffer whereas the sample cell was filled with proteins dissolved in 50 mM sodium phosphate buffer, pH 7.0 containing 100 mM NaCl. Avidin and AVR4/5(C124S) were also analyzed in 50 mM Na-acetate pH 4.0 containing 100 mM NaCl. Furthermore, AVR4/5 was analyzed in the presence of 2-mercaptoethanol (0.4% v/v). The samples (1.6-9.6 μM) were analyzed both in the absence and presence of a three fold molar excess of biotin/subunit. All samples were degassed before being loaded into the DSC. The thermograms were recorded as a function of temperature; between 25 and 130° C. at a rate of 55.6° C./h (Gonzalez, M., Argarana, C. E. & Fidelio, G. D. (1999) Biomol. Eng. 16, 67-72; Nordlund, H. R., Laitinen, O. H., Uotila, S. T., Nyholm, T., Hytönen, V. P., Slotte, J. P. & Kulomaa, M. S. (2003) J. Biol. Chem. 278, 2479-2483). Data was analyzed using Microcal Origin 6.0 and Cpcalc 2.1 (Applied Thermodynamics, Hunt Valley, Md.). The change in heat capacity upon unfolding (ΔCp) was measured for avidin and AVR4/5(C124S) using DSC data from measurements in pH 4.0 and 7.0. ΔCp was then obtained from the slope of ΔH vs. Tm (Liu, Y. & Sturtevant, J. M. (1996) Biochemistry 35, 3059-3062).
# [5] = Non-reducing SDS-PAGE thermostability, oligomeric forms after boiling; format: physicochemical; details: boiled 20 minutes
# Protocol: The heat stability of the AVRs was studied by using an SDS-PAGE-based method (Bayer, E. A., Ehrlich-Rogozinski, S. and Wilchek, M. (1996) Electrophoresis 17, 1319-1324). In this method, each protein sample was divided into two fractions one of which was kept biotin-free and the other was supplemented with an excess of biotin. The samples were then mixed with denaturing SDS-PAGE sample buffer (containing β-mercaptoethanol) and incubated at a given temperature for 20 minutes. After heat treatment, the samples were subjected to SDS-PAGE and visualised by staining with Coomassie brilliant blue. The relative proportions of tetrameric and monomeric forms of the AVR proteins (with avidin as the control) were detected. A similar assay, with β-mercaptoethanol omitted from the sample buffer, was performed to examine the presence of intersubunit disulfide-bridges. Sensitivity to proteinase K was studied both in the absence and in the presence of biotin as described (Laitinen, O. H., Airenne, K. J., Marttila, A. T., Kulik, T., Porkka, E., Bayer, E. A., Wilchek, M. and Kulomaa, M. S. (1999) FEBS Lett. 461, 52-8). The isoelectric point of each AVR was determined by isoelectric focusing as previously reported (Marttila, A. T., Airenne, K. J., Laitinen, O. H., Kulik, T., Bayer, E. A., Wilchek, M. and Kulomaa, M. S. (1998) FEBS Lett. 441, 313-317). […]
# [6] = biotin cuvette; avidin values from literature; cited from earlier work
substance,measurement,setting,value
"wt Avidin: Wild-type chicken avidin (SEQ ID NO 1), purified from chicken egg-white [reference compound]",Tm,[1]; + biotin (biotin:avidin molar ratio 3:1),118.2 ± 0.1 °C
same,Tm,[1]; without biotin,85.5 ± 0.1 °C
same,Reversibility of binding to biotin,[2],4 ± 2%
same,Kd,"[3]; avidin values from Laitinen 2002 / Marttila 2000, read-out: Kd calculated from the equilibrium response data",17 nM
same,kass,[3]; avidin values from literature,(1.6 ± 0.7) × 10^4 M^−1 s^−1
same,Kd,"[3]; avidin values from literature, read-out: Kd calculated directly from the binding curves",20 nM
same,Tm at pH 4,"[4]; 50 mM Na-acetate pH 4.0, 100 mM NaCl",76.6±0.2 °C
same,DSC Tm(−biotin),"[4]; 50 mM sodium phosphate pH 7.0, 100 mM NaCl",83.5 ± 0.1 °C
same,ΔTm,[4]; change in Tm upon addition of a three-fold molar excess of biotin,33.5 °C
same,ΔH of unfolding,[4]; sample without biotin,78.6 ± 1.2 kcal/mol
same,ΔCp (change in heat capacity upon unfolding),"[4]; slope of ΔH vs. Tm, DSC at pH 4.0 and 7.0",0.00366 kcal/mol
same,DSC Tm (+biotin),"[4]; three-fold molar excess of biotin, pH 7.0",117.0 ± 0.7 °C
same,"Monomeric form, relative proportion",[5],100 percentage
same,Reversibility of biotin binding,[6],1 ± 1%
